Laboratory results as given in patent publication US11160886B2, “Method for labeling of sensitive and thermosensitive targeting biomolecules with technetium based compounds” (BRACCO IMAGING SPA, priority 2016, dated 2021).

Legend:
[1] = system: αvβ3 positive M21 and αvβ3 negative M21L cell lines; test: Cell uptake and internalization; format: cell-based, human; conditions: M21 and M21L cells, 37° C., 90 min
Protocol: Cell Studies of complex 9 were conducted on M21 and M21L cells grown in RPMI1640 (Gibco Life Technologies). Expression of αvβ3 and of αvβ5 in the cells lines was analyzed by flow cytometry.
Cellular uptakes of the radiolabeled peptide, were assessed in suspension at 37° C. in human melanoma αvβ3 positive M21 and negative M21L cell lines. Preliminary studies were performed in order to set the experimental conditions to avoid cell damage and/or death during uptake experiments. […] Afterward, 1 ml of the cell suspension (1×10^6 cells/ml) was incubated with intermittent agitation with 10 μCi (10 μL) of ^99mTc complexes. At 90 min, the tubes were vortexed, the cells were transferred in Eppendorf microcentrifuge tube (1.5 ml) and the incubation was interrupted by centrifugation (3000 rpm for 5 min at 10° C.). […] After centrifugation (3000 rpm for 10 min at 10° C.) the supernatant was separated from the pellet, each fraction was collected, placed in a separated counting tube and the activity was determined using a counter (Cobra II, Packard) to determinate both the cell uptake and internalized fraction.
The uptake of complexes is expressed as percentage cell uptake of the total activity on 10^6 cells (% cell uptake/10^6 cells). […]

[2] = Biodistribution in healthy rats; format: in vivo, Sprague-Dawley rats; conditions: for Biodistribution: Blood / Biodistribution: Heart / Biodistribution: Intestine / Biodistribution: Kidneys / Biodistribution: Liver / Biodistribution: Lungs / Biodistribution: Muscle / Biodistribution: Spleen / Biodistribution: Stomach / Biodistribution: Urine: healthy rats
Protocol: Before injection, ^99mTc complexes were purified using a reversed-phase C18 Sep-Pack cartridge to remove the excess of unlabeled ligands. After purification, the activity recovered was further diluted with PBS to obtain a final solution that is <0.5% in EtOH content. The RCP and the stability of the purified complexes were evaluated prior to in vivo administration and for the succeeding 18 h.
Biodistribution in healthy rats. Biodistribution in healthy rats was performed on complex 1, complex 2 and complex 9 in order to evaluate their pharmacokinetic profile and elimination pathways as well as their resistance to in vivo metabolism. Female Sprague-Dawley rats weighing 180-200 g were anesthetized with an intramuscular injection of a mixture of Zoletil (40 mg/kg) and xylazine (2 mg/kg). A jugular vein was surgically exposed and 100 μl (300-370 kBq) of the solution containing the selected [^99mTc(N)(PNP3OH)]-compound was injected. The rats (n=3) were scarified by cervical dislocation at different times after injection. The blood was withdrawn from the heart with a syringe immediately after death and quantified. Organs were excised, rinsed in saline, weighed, and the activity was counted in a Nal well counter.

[^99mTc(N)(PNP3OH)(Cys-cRGDfK)]^+ [Complex 9]
Recognition by molecular target (cellular uptake, FIG. 10) [1]: recognized by the corresponding molecular target
Pharmacokinetic profile: blood clearance ([2]; healthy animals, within the first 60 min p.i.): rapid blood clearance
Biodistribution: Blood ([2]; 30 min): 0.46 ± 0.17 % IA/g
Biodistribution: Heart ([2]; 30 min): 0.25 ± 0.06 % IA/g
Biodistribution: Intestine ([2]; 30 min): 1.29 ± 0.13 % IA/g
Biodistribution: Kidneys ([2]; 30 min): 4.50 ± 1.59 % IA/g
Biodistribution: Liver ([2]; 30 min): 0.90 ± 0.16 % IA/g
Biodistribution: Lungs ([2]; 30 min): 0.62 ± 0.15 % IA/g
Biodistribution: Muscle ([2]; 30 min): 0.17 ± 0.01 % IA/g
Biodistribution: Spleen ([2]; 30 min): 0.41 ± 0.10 % IA/g
Biodistribution: Stomach ([2]; 30 min): 0.62 ± 0.14 % IA/g
Biodistribution: Urine ([2]; 30 min): 28.98 ± 7.22 % IA/g
Biodistribution: Blood ([2]; 60 min): 0.25 ± 0.03 % IA/g
Biodistribution: Heart ([2]; 60 min): 0.15 ± 0.00 % IA/g
Biodistribution: Intestine ([2]; 60 min): 1.95 ± 0.97 % IA/g
Biodistribution: Kidneys ([2]; 60 min): 4.20 ± 0.35 % IA/g
Biodistribution: Liver ([2]; 60 min): 0.80 ± 0.06 % IA/g
Biodistribution: Lungs ([2]; 60 min): 0.49 ± 0.01 % IA/g
Biodistribution: Muscle ([2]; 60 min): 0.13 ± 0.01 % IA/g
Biodistribution: Spleen ([2]; 60 min): 0.39 ± 0.04 % IA/g
Biodistribution: Stomach ([2]; 60 min): 0.64 ± 0.09 % IA/g
Biodistribution: Urine ([2]; 60 min): 28.16 ± 2.49 % IA/g
Biodistribution: Blood ([2]; 120 min): 0.16 ± 0.11 % IA/g
Biodistribution: Heart ([2]; 120 min): 0.13 ± 0.05 % IA/g
Biodistribution: Intestine ([2]; 120 min): 3.76 ± 0.17 % IA/g
Biodistribution: Kidneys ([2]; 120 min): 3.13 ± 1.69 % IA/g
Biodistribution: Liver ([2]; 120 min): 0.75 ± 0.19 % IA/g
Biodistribution: Lungs ([2]; 120 min): 0.37 ± 0.15 % IA/g
Biodistribution: Muscle ([2]; 120 min): 0.12 ± 0.05 % IA/g
Biodistribution: Spleen ([2]; 120 min): 0.34 ± 0.05 % IA/g
Biodistribution: Stomach ([2]; 120 min): 0.62 ± 0.09 % IA/g
Biodistribution: Urine ([2]; 120 min): 34.58 ± 10.09 % IA/g
Biodistribution: Blood ([2]; 240 min): 0.12 ± 0.01 % IA/g
Biodistribution: Heart ([2]; 240 min): 0.22 ± 0.13 % IA/g
Biodistribution: Intestine ([2]; 240 min): 3.94 ± 0.91 % IA/g
Biodistribution: Kidneys ([2]; 240 min): 7.24 ± 0.55 % IA/g
Biodistribution: Liver ([2]; 240 min): 0.88 ± 0.04 % IA/g
Biodistribution: Lungs ([2]; 240 min): 0.42 ± 0.06 % IA/g
Biodistribution: Muscle ([2]; 240 min): 0.11 ± 0.00 % IA/g
Biodistribution: Spleen ([2]; 240 min): 0.47 ± 0.04 % IA/g
Biodistribution: Stomach ([2]; 240 min): 0.61 ± 0.11 % IA/g
Biodistribution: Urine ([2]; 240 min): 24.91 ± 1.00 % IA/g
